Earlier results as cited in paper PMC6128780.

Target: Fibronectin (Homo sapiens) (UniProt P02751)
Chain of UniProt P02751 (P02751 32-2477): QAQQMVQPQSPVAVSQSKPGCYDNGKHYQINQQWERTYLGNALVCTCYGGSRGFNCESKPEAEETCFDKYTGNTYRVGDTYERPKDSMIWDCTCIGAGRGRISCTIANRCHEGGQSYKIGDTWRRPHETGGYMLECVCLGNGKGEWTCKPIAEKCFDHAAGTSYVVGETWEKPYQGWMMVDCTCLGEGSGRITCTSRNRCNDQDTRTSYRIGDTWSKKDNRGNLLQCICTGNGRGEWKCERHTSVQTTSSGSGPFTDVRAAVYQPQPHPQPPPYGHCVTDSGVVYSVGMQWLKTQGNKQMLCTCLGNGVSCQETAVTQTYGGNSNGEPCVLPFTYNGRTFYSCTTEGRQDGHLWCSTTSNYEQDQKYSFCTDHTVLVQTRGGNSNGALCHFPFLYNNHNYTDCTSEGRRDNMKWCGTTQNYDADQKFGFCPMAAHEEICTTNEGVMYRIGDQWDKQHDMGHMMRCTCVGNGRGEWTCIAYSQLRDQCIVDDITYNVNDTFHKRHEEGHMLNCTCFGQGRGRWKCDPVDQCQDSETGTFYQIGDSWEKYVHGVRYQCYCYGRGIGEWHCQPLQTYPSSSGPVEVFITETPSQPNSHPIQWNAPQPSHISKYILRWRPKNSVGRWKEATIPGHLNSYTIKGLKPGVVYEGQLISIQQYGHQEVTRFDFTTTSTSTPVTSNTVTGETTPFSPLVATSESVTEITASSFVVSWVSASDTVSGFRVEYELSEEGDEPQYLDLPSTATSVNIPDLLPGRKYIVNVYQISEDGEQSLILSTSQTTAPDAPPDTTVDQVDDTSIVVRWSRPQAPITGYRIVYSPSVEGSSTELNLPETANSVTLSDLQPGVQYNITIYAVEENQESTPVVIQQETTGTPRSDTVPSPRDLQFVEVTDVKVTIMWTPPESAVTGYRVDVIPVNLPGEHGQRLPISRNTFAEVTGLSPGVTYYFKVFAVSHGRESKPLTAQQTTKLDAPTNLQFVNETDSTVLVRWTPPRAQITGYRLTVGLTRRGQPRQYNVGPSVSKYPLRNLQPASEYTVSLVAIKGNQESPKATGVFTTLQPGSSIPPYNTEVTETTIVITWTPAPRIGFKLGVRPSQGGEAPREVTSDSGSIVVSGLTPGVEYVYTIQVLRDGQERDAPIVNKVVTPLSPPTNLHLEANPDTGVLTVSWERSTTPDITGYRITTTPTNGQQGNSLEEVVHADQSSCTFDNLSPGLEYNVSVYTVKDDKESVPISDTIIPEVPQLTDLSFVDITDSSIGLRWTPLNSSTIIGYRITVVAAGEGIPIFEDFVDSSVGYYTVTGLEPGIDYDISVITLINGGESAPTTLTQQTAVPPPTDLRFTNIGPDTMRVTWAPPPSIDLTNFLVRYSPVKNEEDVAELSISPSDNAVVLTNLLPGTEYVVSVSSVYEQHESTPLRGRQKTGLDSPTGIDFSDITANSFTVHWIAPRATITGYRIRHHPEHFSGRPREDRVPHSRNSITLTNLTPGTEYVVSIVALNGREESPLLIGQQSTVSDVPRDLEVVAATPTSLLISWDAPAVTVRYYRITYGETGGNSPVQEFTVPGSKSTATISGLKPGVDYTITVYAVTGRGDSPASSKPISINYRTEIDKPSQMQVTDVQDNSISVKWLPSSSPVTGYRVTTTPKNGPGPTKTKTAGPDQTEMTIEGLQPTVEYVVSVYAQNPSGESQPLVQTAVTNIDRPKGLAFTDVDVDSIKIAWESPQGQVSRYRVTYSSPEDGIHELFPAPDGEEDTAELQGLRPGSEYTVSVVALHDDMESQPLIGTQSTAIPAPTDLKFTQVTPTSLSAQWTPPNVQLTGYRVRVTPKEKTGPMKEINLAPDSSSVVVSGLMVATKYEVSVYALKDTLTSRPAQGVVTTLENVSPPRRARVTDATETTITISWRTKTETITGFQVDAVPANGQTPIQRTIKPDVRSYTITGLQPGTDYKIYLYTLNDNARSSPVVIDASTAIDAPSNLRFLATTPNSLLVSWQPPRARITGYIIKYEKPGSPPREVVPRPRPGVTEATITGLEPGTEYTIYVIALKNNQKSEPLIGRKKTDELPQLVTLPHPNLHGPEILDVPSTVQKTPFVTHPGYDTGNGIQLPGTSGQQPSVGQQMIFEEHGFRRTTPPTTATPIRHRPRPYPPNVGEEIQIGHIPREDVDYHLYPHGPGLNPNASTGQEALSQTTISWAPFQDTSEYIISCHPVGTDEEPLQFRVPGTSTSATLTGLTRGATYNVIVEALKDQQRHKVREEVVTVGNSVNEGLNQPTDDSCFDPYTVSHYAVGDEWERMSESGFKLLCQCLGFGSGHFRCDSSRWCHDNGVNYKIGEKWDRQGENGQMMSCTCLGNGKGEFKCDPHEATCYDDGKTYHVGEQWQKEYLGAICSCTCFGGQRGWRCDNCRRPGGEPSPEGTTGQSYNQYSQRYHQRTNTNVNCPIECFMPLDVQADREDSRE

- Kd: 16 nM
Substance: Carcinoembryonic antigen (CEA) IgV-like N domain (from UniProt P06731)
